In patent publication US7834144B2 (priority 2005, dated 2010):
Several values for one entry are separate records, joined by “and”; a condition that tells them apart may be missing. Identical values can stand only once. Like-named read-outs stand apart in the source and are kept apart here. Where no end group is shown, it is not given here. [ ]: non-standard residue; d: D form. Nab = not defined here; Nbn = not defined here

Assays:
[1] = molecular target: T1, PrPc (Homo sapiens, UniProt P04156); settings: Table 16
[2] = molecular target: T2, PrP^Sc (Homo sapiens, UniProt P04156)
[3] = molecular target: T2, PrP^Sc; remark: listed apart in the source
[4] = molecular target: T1, PrPc; settings: for LU, Pulldown, PrPC / pg, Pulldown, PrPC: 3M GdnSCN; for pg, Pulldown, PrPC: rPrP standard curve
[5] = molecular target: T1, PrPc; assay type: binding
[6] = molecular target: T1, PrPc
[7] = molecular target: T2, PrP^Sc; settings: folded PrP^Sc pulled down by XIIb
[8] = molecular target: T2, PrP^Sc; remark: listed apart in the source
[9] = molecular target: T2, PrP^Sc; assay type: binding
[10] = molecular target: T1, PrPc; settings: Table 15
[11] = 70 ul plasma (70%) + 50 nl 10% normal BH
[12] = Table 7, covalently bound to magnetic beads, 70% human plasma

Question: “Peptoid Reagent XIIb: peptoid reagent comprising SEQ ID NO: 240, Nab-Nab-Nab-Nbn-Nab-Nbn, covalently bound to magnetic beads ([Nab][Nab][Nab][Nbn][Nab][Nbn]; reading uncertain; also: covalently bound to magnetic beads, printed as Nab-Nab-Nab-Nbn-Nab-Nbn)” was tested. Which “AVE Plasma” value ([1]; 50 μl GdnSCN 3M, pH 5.9, 50 μl NaHCO3, final pH 8.5) did it give?
Answer: 5.5

Question: And the “AVE Plasma” value ([1]; 100 μl TBST, pH 7.5)?
Answer: 2.2

Question: And the “AVE Plasma” value ([1]; H3PO4 (50 μl) 0.00007M, pH 4, NaOH (25 μl) 0.0031N)?
Answer: 8.7

Question: And the “AVE Plasma” value ([1]; H3PO4 (50 μl) 0.00075M, pH 3, NaOH (25 μl) 0.031N)?
Answer: 19.9

Question: What about the “AVE Plasma” value ([1]; H3PO4 (50 μl) 0.12M, pH 2, NaOH (25 μl) 0.31N) of the same substance?
Answer: 8.0

Question: And the “AVE Plasma” value ([1]; H3PO4 (50 μl) 0.5M, pH 1, NaOH (25 μl) 3.1N)?
Answer: 11.9

Question: And the “AVE Plasma” value ([1]; NaOH (50 μl) 0.0001M, pH 10, NaH2PO4 (20 μl) 0.0003M)?
Answer: 3.1

Question: What about the “AVE Plasma” value ([1]; NaOH (50 μl) 0.001M, pH 11, NaH2PO4 (20 μl) 0.003M) of the same substance?
Answer: 3.6

Question: What about the “AVE Plasma” value ([1]; NaOH (50 μl) 0.1M, pH 12, NaH2PO4 (20 μl) 0.03M) of the same substance?
Answer: 5.1

Question: And the “AVE Plasma” value ([1]; NaOH (50 μl) 0.1M, pH 13, NaH2PO4 (20 μl) 0.3M)?
Answer: 5.2

Question: And the “enrichment of PrP^Sc over PrP^C” value ([2]; 47 pg PrP^Sc pulled down vs 7 pg of about 488 pg PrP^C)?
Answer: ≥ 70 fold

Question: What about the increase in signal ([2]; 0.05 μl vCJD BH spiked into 70 μl plasma, versus background) of the same substance?
Answer: four fold increase in signal

Question: What about the “LU, Pulldown, PrPSc” value ([2]; 70 ul plasma (70%) + 50 nl 10% vCJD BH, 3M GdnSCN) of the same substance?
Answer: 97.1 LU

Question: What about the “pg, Pulldown, PrPSc” value ([2]; 70 ul plasma (70%) + 50 nl 10% vCJD BH, 3M GdnSCN, rPrP standard curve) of the same substance?
Answer: 47 pg and 47.1 pg

Question: What about the “Avg LU, 3F4 Beads” value ([3]; vCJD 0 nL BH/asy (background)) of the same substance?
Answer: 1.62 LU

Question: What about the “Avg LU, C17 Beads” value ([3]; vCJD 0 nL BH/asy (background)) of the same substance?
Answer: 11.84 LU

Question: What about the “S/N, 3F4 Beads” value ([3]; vCJD 0 nL BH/asy (background)) of the same substance?
Answer: 1.0

Question: And the “S/N, C17 Beads” value ([3]; vCJD 0 nL BH/asy (background))?
Answer: 1.0

Question: What about the “Avg LU, 3F4 Beads” value ([3]; vCJD 1 nL BH/asy) of the same substance?
Answer: 3.11 LU

Question: And the “Avg LU, C17 Beads” value ([3]; vCJD 1 nL BH/asy)?
Answer: 16.53 LU

Question: And the “S/N, 3F4 Beads” value ([3]; vCJD 1 nL BH/asy)?
Answer: 1.9

Question: What about the “S/N, C17 Beads” value ([3]; vCJD 1 nL BH/asy) of the same substance?
Answer: 1.4

Question: What about the “Avg LU, 3F4 Beads” value ([3]; vCJD 5 nL BH/asy) of the same substance?
Answer: 2.25 LU

Question: And the “Avg LU, C17 Beads” value ([3]; vCJD 5 nL BH/asy)?
Answer: 26.08 LU

Question: And the “S/N, 3F4 Beads” value ([3]; vCJD 5 nL BH/asy)?
Answer: 1.4

Question: What about the “S/N, C17 Beads” value ([3]; vCJD 5 nL BH/asy) of the same substance?
Answer: 2.2

Question: What about the “S/N, 3F4 Beads” value ([3]; vCJD 10 nL BH/asy) of the same substance?
Answer: 1.7

Question: And the “S/N, C17 Beads” value ([3]; vCJD 10 nL BH/asy)?
Answer: 3.5

Question: What about the “Avg LU, 3F4 Beads” value ([3]; vCJD 10 nL BH/asy, 3F4 capture, C2-AP detection) of the same substance?
Answer: 2.83 LU

Question: What about the “Avg LU, C17 Beads” value ([3]; vCJD 10 nL BH/asy, C17 capture, C2-AP detection) of the same substance?
Answer: 41.86 LU

Question: And the “LU, Pulldown, PrPC” value [4, 11]?
Answer: 25.6 LU

Question: What about the “pg, Pulldown, PrPC” value [4, 11] of the same substance?
Answer: 7.3 pg

Question: What about the “LU, Pulldown, PrPC” value ([4]; 70 ul plasma (70%)) of the same substance?
Answer: 23 LU and 23.3 LU

Question: And the “pg, Pulldown, PrPC” value ([4]; 70 ul plasma (70%))?
Answer: 6.0 pg

Question: What about the “PrP^C bound by peptoid” value ([4]; plasma containing about 488 pg of PrP^C) of the same substance?
Answer: 7 pg

Question: And the Mean binding ([5]; Table 10, 15 nL 10% normal human brain homogenate, 70% human plasma, covalently attached to beads)?
Answer: 13.2

Question: And the Mean binding ([5]; Table 11, TBSTT with 70% Human Plasma)?
Answer: 269.5

Question: And the Mean binding ([5]; Table 11, TBSTT with 70% Human Plasma containing 20 nL 10% normal human brain homogenate)?
Answer: 306.4

Question: And the “Nomal BH (RLU) ave, Pulldown” value ([6]; 10 nL of 10% normal BH in 50% pooled normal human plasma, XIIb-beads)?
Answer: 9.9 RLU

Question: What about the “No BH (RLU) ave, Pulldown” value ([6]; no BH, 50% pooled normal human plasma, XIIb-beads (background)) of the same substance?
Answer: 9.0 RLU

Question: And the “GdnHCl1/2 (GdnHCl concentration at half-maximal denaturation)” value ([7]; sCJD brain homogenate)?
Answer: 2.0 M

Question: What about the “GdnHCl1/2 (GdnHCl concentration at half-maximal denaturation)” value ([7]; vCJD brain homogenate) of the same substance?
Answer: 1.6 M

Question: What about the “vCJD BH (RLU) ave, Pulldown” value ([8]; 10 nL of 10% vCJD BH in 50% pooled normal human plasma, XIIb-beads, 0.1N NaOH) of the same substance?
Answer: 53.0 RLU

Question: What about the pulldown efficiency ([8]; pulldown signal vs directly GdnSCN-denatured 10 nL 10% vCJD sample) of the same substance?
Answer: ~100%

Question: What about the Mean [9, 12] of the same substance?
Answer: 174.3

Question: What about the “Mean (% of 68)” value [9, 12] of the same substance?
Answer: 126.4%

Question: What about the Mean binding ([9]; Table 10, 0.833 nL human vCJD 10% brain homogenate, 70% human plasma, covalently attached to beads) of the same substance?
Answer: 49.2

Question: What about the Mean binding ([9]; Table 10, 2.5 nL human vCJD 10% brain homogenate, 70% human plasma, covalently attached to beads) of the same substance?
Answer: 57.3

Question: And the Mean binding ([9]; Table 10, 7.5 nL human vCJD 10% brain homogenate, 70% human plasma, covalently attached to beads)?
Answer: 121.1

Question: And the Mean binding ([9]; Table 11, TBSTT with 70% Human Plasma containing 20 nL 10% human CJD brain homogenate)?
Answer: 1390.8

Question: What about the “Mean (% of Control)” value ([9]; Table 13, Control Human Plasma) of the same substance?
Answer: 100.0%

Question: What about the “Mean (% of Control)” value ([9]; Table 13, Human Plasma lot KC011886) of the same substance?
Answer: 132.78%

Question: And the “Mean (% of Control)” value ([9]; Table 13, Human Plasma lot KC011892)?
Answer: 127.51%

Question: What about the “Mean (% of Control)” value ([9]; Table 13, Human Plasma lot KC28719) of the same substance?
Answer: 126.03%

Question: And the “Mean (% of Control)” value ([9]; Table 13, Human Plasma lot KC032907)?
Answer: 125.02%

Question: And the Mean ([9]; Table 13, bound directly to magnetic beads, Control Human Plasma)?
Answer: 154.99

Question: What about the Mean ([9]; Table 13, bound directly to magnetic beads, Human Plasma lot KC011886) of the same substance?
Answer: 205.80

Question: What about the Mean ([9]; Table 13, bound directly to magnetic beads, Human Plasma lot KC011892) of the same substance?
Answer: 197.63

Question: What about the Mean ([9]; Table 13, bound directly to magnetic beads, Human Plasma lot KC28719) of the same substance?
Answer: 195.33

Question: And the Mean ([9]; Table 13, bound directly to magnetic beads, Human Plasma lot KC032907)?
Answer: 193.77

Question: What about the “AVE Plasma” value ([10]; 15 μl GdnSCN 3M, pH 5.9, 210 μl H20, final pH 6.0) of the same substance?
Answer: 37.7

Question: And the “AVE Plasma” value ([10]; 70 μl TBST, pH 7.5)?
Answer: 11.8
